In patent publication US20060104978A1, “Methods and compositions for PDGF-C activation and inhibition” (LUDWIG INSTITUTE FOR CANCER RESEARCH, priority 2003, published 2006):

Molecular target: latent PDGF-DD (Homo sapiens, UniProt Q9GZP0)
Assay: Cotransfection assay in COS-1 cells: protease plus full-length PDGF-D
Assay type: cell-based
Set-up: cotransfected with full-length PDGF-C (Li et al, 2000), full-length PDGF-D (Bergsten et al, 2001); expressed in transfected cells; host or cells: COS-1 cells
Details: COS-1 conditioned medium, immunoblot
Excerpt: A cotransfection assay was established to identify serine proteases able to cleave and activate latent PDGF-CC. Expression plasmids encoding the relevant enzymes and full-length PDGF-C were cotransfected into COS-1 cells, and aliquots of the conditioned media from the transfectants were subjected to SDS-PAGE and immunoblotting using antibodies to the growth factor domain of PDGF-C. […] As a specificity control, the ability of tPA and NT to use full-length PDGF-DD as the substrate in the cotransfection assay was analysed. […] One difference in the latter results, as compared with the results from the cotransfection assay, was that purified tPA generated a second intermediate species of 32 kDa using latent PDGF-CC as the substrate. […]
To test the endogenous expression of PDGF-CC, subconfluent AG1523 cells and primary fibroblast cultures were cultured in serum-free DMEM overnight. […] In the case of the primary cultures, total protein concentration was measured and normalized (Bradford, 1976). […] PDGF-C and PDGF-D were detected by immunoblotting using affinity-purified polyclonal rabbit antibodies against PDGF-C (Li et al, 2000) and PDGF-D (Bergsten et al, 2001), respectively. The His6-tagged proteins were detected using an anti-His monoclonal antibody (C-terminal, Invitrogen). tPA was detected using sheep polyclonal antibodies against human tPA (ab9030, Abcam).

## tPA: tissue plasminogen activator, secreted serine protease; expressed, purified from human melanoma cells or recombinant
  cleavage and activation of latent PDGF-DD by the coexpressed protease: neither of the two enzymes was able to cleave and activate latent PDGF-DD
